Broadly, the stoichiometry N is a count of units in the complex or per binding partner.

This series deals with the molecule itself. Nature of the series: cryo-EM structure; single-particle analysis of SEC population 1 in DDM (25 mM TRIS pH 8.0, 100 mM NaCl, 3% glycerol, 0.5 mM TCEP, 0.02% DDM), 3.0 mg/mL; protomers to octamer; maps with C1 and C8 symmetry.

B1: N-terminal truncated WzzB, missing residues 1-15 (truncated E16M variant) (domain or fragment, E. coli K12, UniProt P76372 16-326, looked up)
chain: MQIDLIDLLVQLWRGKMTIIISVIVAIALAIGYLAVAKEKWTSTAIITQPDVGQIAGYNNAMNVIYGQAAPKVSDLQETLIGRFSSAFSALAETLDNQEEREKLTIEPSVKNQQLPLTVSYVGQTAEGAQMKLAQYIQQVDDKVNQELEKDLKDNIALGRKNLQDSLRTQEVVAQEQKDLRIRQIQEALQYANQAQVTKPQIQQTGEDITQDTLFLLGSEALESMIKHEATRPLVFSPNYYQTRQNLLDIESLKVDDLDIHAYRYVMKPMLPIRRDSPKKAITLILAVLLGGMVGAGIVLGRNALRNYNAK
notes: WzzB of E. coli K12 missing the first 15 amino acids; a start codon was introduced at position 16 (E16M); Same vector and non-cleavable C-terminal 8×His tag as m1; Virtually all particles are dimers of octamers; also called N-terminally truncated WzzB; N-terminally truncated variant; source: E. coli C41, membranes solubilized with 1% DDM, purified (Ni-NTA, Superdex 200 SEC); not shown: 8×His, …
With B1, the “stoichiometry N” value worked out at 8.

B2: Full-length WzzB polysaccharide co-polymerase of E. coli (natural protein, E. coli K12, UniProt P76372 1-326, looked up)
chain: MRVENNNVSGQNHDPEQIDLIDLLVQLWRGKMTIIISVIVAIALAIGYLAVAKEKWTSTAIITQPDVGQIAGYNNAMNVIYGQAAPKVSDLQETLIGRFSSAFSALAETLDNQEEREKLTIEPSVKNQQLPLTVSYVGQTAEGAQMKLAQYIQQVDDKVNQELEKDLKDNIALGRKNLQDSLRTQEVVAQEQKDLRIRQIQEALQYANQAQVTKPQIQQTGEDITQDTLFLLGSEALESMIKHEATRPLVFSPNYYQTRQNLLDIESLKVDDLDIHAYRYVMKPMLPIRRDSPKKAITLILAVLLGGMVGAGIVLGRNALRNYNAK
notes: WzzB, polysaccharide co-polymerase (O-antigen chain length regulator), amplified from E. coli K12 genomic DNA; full-length gene; Integral membrane protein in a DDM micelle; The 8×His tag is non-cleavable (modified pWaldo vector); About 25% of the particles are dimers of the octamer; also called native protein; polysaccharide co-polymerase (PCP) Wzz; source: E. coli C41, membranes solubilized with …
Regarding B2, the “stoichiometry N” value was 8.
